{"source": "patent US20170266276A1", "about": "“Combination Therapy For Treatment of Cancer” (OncoMed Pharmaceuticals, Inc., priority 2014, published 2017)", "molecules": {"B1": {"name": "OMP-131R010: anti-RSPO3 antibody; heavy chain variable region SEQ ID NO:38, light chain variable region SEQ ID NO:39; plasmids ATCC PTA-120420 and PTA-120421 (antibody, V domains shown)", "VH": "QVQLVQSGAEVKKPGASVKVSCKASGYTFTDYSIHWVRQAPGQGLEWIGYIYPSNGDSGYNQKFKNRVTMTRDTSTSTAYMELSRLRSEDTAVYYCATYFANNFDYWGQGTTLTVSS", "VL": "DIQMTQSPSSLSASVGDRVTITCKASQSVDYDGDSYMNWYQQKPGKAPKLLIYAASNLESGVPSRFSGSGSGTDFTLTISPVQAEDFATYYCQQSNEDPLTFGAGTKLELKR", "notes": "anti-RSPO3 antibody; plasmids ATCC PTA-120420 and PTA-120421"}}, "key": {"[1]": {"system": "OMP-OV19 ovarian tumor cells", "assay": "OMP-OV19 ovarian tumor xenograft model, tumor volume", "type": "in vivo, NOD/SCID mice", "method": "FIGS. 1A and 1B. Inhibition of ovarian tumor growth in vivo by a RSPO-LGR pathway inhibitor in combination with a chemotherapeutic agent. OMP-OV19 ovarian tumor cells were injected subcutaneously into NOD/SCID mice. FIG. 1A. Mice were treated with control antibody (-[…]-), paclitaxel (-▪-), a combination of paclitaxel plus anti-RSPO3 antibody 131R010 (also referred to as OMP-131R10) administered the same day (-▴-), or a combination of paclitaxel plus 131R010, wherein 131R010 was administered 2 days prior to paclitaxel (-▾-). Antibodies were dosed at 25 mg/kg and administered every other week. Paclitaxel was dosed at 20 mg/kg and administered every other week. Tumor volumes were measured on the indicated days post-treatment and shown as the mean±SEM. FIG. 1B. Tumor volumes of individual animals in the two combination treatment groups on Day 61.\nOncoMed xenograft models described herein were established at OncoMed Pharmaceuticals from minimally passaged, patient-derived tumor specimens. The tumor specimens were examined by a pathologist and classified as a specific tumor type. […]\nSingle cell suspensions of xenograft OMP-OV19 ovarian tumor cells (1×10^5 cells) were injected subcutaneously into NOD/SCID mice. […] Tumor volumes were measured on the indicated days post-treatment and are shown as the mean±SEM in FIG. 1A."}, "[2]": {"system": "OMP-LU77 lung tumor cells", "assay": "OMP-LU77 lung tumor xenograft model, tumor volume", "type": "in vivo, NOD/SCID mice", "method": "FIG. 2. Inhibition of lung tumor growth in vivo by a RSPO-LGR pathway inhibitor in combination with a chemotherapeutic agent. OMP-LU77 lung tumor cells were injected subcutaneously into NOD/SCID mice. Mice were treated with control antibody (-▪-), paclitaxel (-▴-), a combination of paclitaxel and anti-RSPO3 antibody 131R010 (also referred to as OMP-131R10) administered the same day (-▾-), or a combination of paclitaxel plus anti-RSPO3 antibody 131R010, wherein 131R010 was administered 2 days prior to paclitaxel (-[…]-). Antibodies were dosed every three weeks at 25 mg/kg. Taxol was dosed every three weeks at 20 mg/kg. Tumor volumes were measured on the indicated days post-treatment.\n(§1) OncoMed xenograft models described herein were established at OncoMed Pharmaceuticals from minimally passaged, patient-derived tumor specimens. The tumor specimens were examined by a pathologist and classified as a specific tumor type. OncoMed relies on these classifications unless further analyses are done on any specific tumor and a reclassification is deemed necessary.\nSingle cell suspensions of xenograft OMP-LU77 lung tumor cells (5×10^4 cells) were injected subcutaneously into NOD/SCID mice. Tumors were allowed to grow 34 days until they reached an average volume of approximately 125 mm^3. […] Tumor volumes were measured on the indicated days post-treatment."}, "OMP-C8 colon tumor cells": {"system": "OMP-C8 colon tumor cells", "assay": "OMP-C8 colorectal tumor xenograft model, tumor volume", "type": "in vivo, NOD/SCID mice", "details": "for tumor growth inhibition, staggered vs same-day dosing: OMP-131R010 25 mg/kg every other week, compared with dosing on the same day", "method": "FIGS. 3A and 3B. Inhibition of colorectal tumor growth in vivo by a RSPO-LGR pathway inhibitor in combination with chemotherapeutic agents. OMP-C8 colorectal tumor cells were injected subcutaneously into NOD/SCID mice. FIG. 3A. Mice were treated with control antibody (-▪-), nab-paclitaxel (ABRAXANE) (-Δ-), a combination of nab-paclitaxel and anti-RSPO3 antibody 131R010 administered the same day (-[…]-), or a combination of nab-paclitaxel plus anti-RSPO3 antibody 131R010, wherein 131R010 was administered 2 days prior to nab-paclitaxel (-▾-). Antibodies were dosed every other week at 25 mg/kg. Nab-paclitaxel was dosed once a week at 30 mg/kg. Tumor volumes were measured on the indicated days post-treatment. FIG. 3B. Mice were treated with control antibody (-▪-), 5-FU and irinotecan (-◯-), a combination of 5-FU, irinotecan, and anti-RSPO3 antibody 131R010 administered the same day (-▴-), or a combination of 5-FU and irinotecan plus anti-RSPO3 antibody 131R010, wherein 131R010 was administered 2 days prior to 5-FU and irinotecan (-⋄-). Antibodies were dosed every other week at 25 mg/kg. 5-FU and irinotecan were dosed at 50 mg/kg and 5 mg/kg, respectively, once a week. Tumor volumes were measured on the indicated days post-treatment.\nas §1\nSingle cell suspensions of xenograft OMP-C8 colon tumor cells (5×10^4 cells) were injected subcutaneously into NOD/SCID mice. OMP-C8 colon tumor cells comprise an inactivating mutation in the APC gene and express low levels of RSPO3 (data not shown). Tumors were allowed to grow 23 days until they reached an average volume of approximately 100 mm^3. Tumor-bearing mice were randomized into four groups (n=9 animals per group). […] Tumor volumes were measured on the indicated days post-treatment."}, "xenograft models": {"system": "xenograft models", "assay": "Several xenograft models (summary of Examples 1-3)", "type": "in vivo"}}, "data": [{"molecule": "B1", "values": [{"measurement": "tumor growth inhibition, staggered vs same-day dosing", "setting": "[1]; OMP-131R010 25 mg/kg every other week, given two days prior to paclitaxel 20 mg/kg every other week, compared with dosing on the same day", "result": "greater tumor growth inhibition than dosing on the same day"}, {"measurement": "tumor size over the course of the treatment", "setting": "[1]; staggered administration: OMP-131R010 25 mg/kg two days prior to paclitaxel 20 mg/kg, every other week", "result": "decreased tumor size"}, {"measurement": "tumor growth inhibition, staggered vs same-day dosing", "setting": "[2]; OMP-131R010 25 mg/kg given two days prior to paclitaxel 20 mg/kg, both once every three weeks, compared with dosing on the same day", "result": "greater tumor growth inhibition than dosing on the same day"}, {"measurement": "tumor size over the course of the treatment", "setting": "[2]; staggered administration: OMP-131R010 25 mg/kg two days prior to paclitaxel 20 mg/kg, once every three weeks", "result": "decreased tumor size"}, {"measurement": "tumor growth inhibition, staggered vs same-day dosing", "setting": "OMP-C8 colon tumor cells; given two days prior to fluorouracil 50 mg/kg and irinotecan 5 mg/kg weekly", "result": "did not result in greater tumor growth inhibition than dosing on the same day"}, {"measurement": "tumor growth inhibition, staggered vs same-day dosing", "setting": "OMP-C8 colon tumor cells; given two days prior to nab-paclitaxel 30 mg/kg weekly", "result": "greater tumor growth inhibition than dosing on the same day"}, {"measurement": "efficacy in inhibiting tumor growth, vs combination with a non-mitotic-inhibitor chemotherapeutic agent", "setting": "OMP-C8 colon tumor cells; OMP-131R010 and nab-paclitaxel administered in a sequential manner, compared with OMP-131R010 plus fluorouracil and irinotecan", "result": "greater efficacy in inhibiting tumor growth"}, {"measurement": "inhibition of tumor growth, staggered vs co-administration", "setting": "xenograft models; OMP-131R010 administered prior to a taxane, compared with co-administration", "result": "better at inhibiting tumor growth"}, {"measurement": "inhibition of tumor growth by the combination", "setting": "xenograft models; combination of OMP-131R010 and a taxane", "result": "effective at inhibiting tumor growth"}, {"measurement": "tumor size over the course of the treatment", "setting": "xenograft models; staggered administration of OMP-131R010 and taxane", "result": "decreased tumor size"}]}]}
